Test results reported in patent publication US20170296617.

T1: Pep25-P2 (ERTYSPS)
T1 chain: ERTYSPS

T2: peptide25 (ERTYSPSTAVRS)
T2 chain: ERTYSPSTAVRS


Key:
Pep25-P2 (ERTYSPS) = molecular target: T1, Pep25-P2 (ERTYSPS)
peptide25 (ERTYSPSTAVRS) = molecular target: T2, peptide25 (ERTYSPSTAVRS)

Protein | [S6] phosphorylation ratio (pS6 peak area over pS6 plus S6), mass spectrometry of the ROCK reaction with substrate S6 (Pep25-P2 (ERTYSPS)) | conversion ratio of phosphorylated S6 substrate (mass spectrometry) (Pep25-P2 (ERTYSPS)) | ROCK autophosphorylation under high ATP levels (1 mM) (peptide25 (ERTYSPSTAVRS))
ROCK1 (protein) MSTGDSFETRFEKMDNLLRDPKSEVNSDCLLDGLDALVYDLDFPALRKNKNIDNFLSRYKDTINKIRDLRMKAEDYEVVKVIGRGAFGEVQLVRHKSTRKVYAMKLLSKFEMIKRSDSAFFWEERDIMAFANSPWVVQLFYAFQDDRYLYMVMEYMPGGDLVNLMSNYDVPEKWARFYTAEVVLALDAIHSMGFIHRDVKPDNMLLDKSGHLKLADFGTCMKMNKEGMVRCDTAVGTPDYISPEVLKSQGGDGYYGRECDWWSVGVFLYEMLVGDTPFYADSLVGTYSKIMNHKNSLTFPDDNDISKEAKNLICAFLTDREVRLGRNGVEEIKRHLFFKNDQWAWETLRDTVAPVVPDLSSDIDTSNFDDLEEDKGEEETFPIPKAFVGNQLPFVGFTYYSNRRYLSSANPNDNRTSSNADKSLQESLQKTIYKLEEQLHNEMQLKDEMEQKCRTSNIKLDKIMKELDEEGNQRRNLESTVSQIEKEKMLLQHRINEYQRKAEQENEKRRNVENEVSTLKDQLEDLKKVSQNSQLANEKLSQLQKQLEEANDL | ratio falls with the dose: about 31 at 1 uM, about 29 at 10 uM, about 22 at 30 uM, about 18 at 100 uM; no lower plateau, less than half suppressed at 100 uM; the pS6 peak near m/z 3710 shrinks from 1 uM to 100 uM in the four spectra | Pep25-P2 repressed the phosphorylation of substrate S6 by ROCK | –
MBP-ROCK1 (ROCK1 catalytic domain linked to maltose binding protein) (protein) MSTGDSFETRFEKMDNLLRDPKSEVNSDCLLDGLDALVYDLDFPALRKNKNIDNFLSRYKDTINKIRDLRMKAEDYEVVKVIGRGAFGEVQLVRHKSTRKVYAMKLLSKFEMIKRSDSAFFWEERDIMAFANSPWVVQLFYAFQDDRYLYMVMEYMPGGDLVNLMSNYDVPEKWARFYTAEVVLALDAIHSMGFIHRDVKPDNMLLDKSGHLKLADFGTCMKMNKEGMVRCDTAVGTPDYISPEVLKSQGGDGYYGRECDWWSVGVFLYEMLVGDTPFYADSLVGTYSKIMNHKNSLTFPDDNDISKEAKNLICAFLTDREVRLGRNGVEEIKRHLFFKNDQWAWETLRDTVAPVVPDLSSDIDTSNFDDLEEDKGEEETFPIPKAFVGNQLPFVGFTYYSNRRYLSSANPNDNR | – | – | blocked ROCK autophosphorylation
